In the Human Domainome abundance scans (Beltran et al. 2025) one finds abundance fitness data, which are given here for 45 variants.

± gives the uncertainty stated by the source.

The labels stand for the following.
B1: Intersectin-1, residues 1156 to 1213; numbered along this chain, Q15811 (parent)
chain: AVCQVIGMYDYTAQNDDELAFNKGQIINVLNKEDPDWWKGEVNGQVGLFPSNYVKLTT

In the data set the parent is B1. Description: abundance fitness (aPCA) (normalised: wild type 0, dead -1); higher = more abundant; growth selection in yeast, the domain comes from the species named. The following applies: Homo sapiens.
As to AVCQVIGMYDYTAQNDDELAFNKGQIINVLNKEDPDWWKGEPNGQVGLFPSNYVKLTT [V42P], the abundance fitness is -0.72 ± 0.26.

Regarding AVCQVIGMYDYTAQNDDELAFNKGQIINVLNKEDPDWWKGEQNGQVGLFPSNYVKLTT [V42Q], the abundance fitness was -0.617 ± 0.32.

Turning to AVCQVIGMYDYTAQNDDELAFNKGQIINVLNKEDPDWWKGELNGQVGLFPSNYVKLTT [V42L], the abundance fitness turned out to be 0.018 ± 0.1.

AVCQVIGMYDYTAQNDDELAFNKGQIINVLNKEDPDWWKGERNGQVGLFPSNYVKLTT [V42R]: the abundance fitness was -0.274 ± 0.1.

Take AVCQVIGMYDYTAQNDDELAFNKGQIINVLNKEDPDWWKGEHNGQVGLFPSNYVKLTT [V42H]: the abundance fitness was -0.237 ± 0.17.

Regarding AVCQVIGMYDYTAQNDDELAFNKGQIINVLNKEDPDWWKGEANGQVGLFPSNYVKLTT [V42A], the abundance fitness was 0.041 ± 0.093.

Consider AVCQVIGMYDYTAQNDDELAFNKGQIINVLNKEDPDWWKGEENGQVGLFPSNYVKLTT [V42E], for which the abundance fitness was -0.949 ± 0.22.

With AVCQVIGMYDYTAQNDDELAFNKGQIINVLNKEDPDWWKGEYNGQVGLFPSNYVKLTT [V42Y], the abundance fitness turned out to be 0.042 ± 0.19.

In the case of AVCQVIGMYDYTAQNDDELAFNKGQIINVLNKEDPDWWKGEINGQVGLFPSNYVKLTT [V42I], the abundance fitness was -0.048 ± 0.13.

Take AVCQVIGMYDYTAQNDDELAFNKGQIINVLNKEDPDWWKGEDNGQVGLFPSNYVKLTT [V42D]: the abundance fitness is -0.663 ± 0.17.

For the variant AVCQVIGMYDYTAQNDDELAFNKGQIINVLNKEDPDWWKGETNGQVGLFPSNYVKLTT [V42T], the abundance fitness was -0.299 ± 0.17.

Consider AVCQVIGMYDYTAQNDDELAFNKGQIINVLNKEDPDWWKGEMNGQVGLFPSNYVKLTT [V42M], for which the abundance fitness is -0.093 ± 0.18.

In the case of AVCQVIGMYDYTAQNDDELAFNKGQIINVLNKEDPDWWKGENNGQVGLFPSNYVKLTT [V42N], the abundance fitness was -0.756 ± 0.48.

Consider AVCQVIGMYDYTAQNDDELAFNKGQIINVLNKEDPDWWKGEGNGQVGLFPSNYVKLTT [V42G], for which the abundance fitness is -0.62 ± 0.094.

For AVCQVIGMYDYTAQNDDELAFNKGQIINVLNKEDPDWWKGECNGQVGLFPSNYVKLTT [V42C], the abundance fitness came to 0.091 ± 0.13.

In the case of AVCQVIGMYDYTAQNDDELAFNKGQIINVLNKEDPDWWKGEKNGQVGLFPSNYVKLTT [V42K], the abundance fitness was -0.405 ± 0.33.

As for AVCQVIGMYDYTAQNDDELAFNKGQIINVLNKEDPDWWKGEWNGQVGLFPSNYVKLTT [V42W], the abundance fitness was -0.811 ± 0.21.

As for AVCQVIGMYDYTAQNDDELAFNKGQIINVLNKEDPDWQKGEVNGQVGLFPSNYVKLTT [W38Q], the abundance fitness is -0.715 ± 0.21.

As for AVCQVIGMYDYTAQNDDELAFNKGQIINVLNKEDPDWAKGEVNGQVGLFPSNYVKLTT [W38A], the abundance fitness is -0.533 ± 0.12.

For the variant AVCQVIGMYDYTAQNDDELAFNKGQIINVLNKEDPDWTKGEVNGQVGLFPSNYVKLTT [W38T], the abundance fitness was -0.892 ± 0.17.

As to AVCQVIGMYDYTAQNDDELAFNKGQIINVLNKEDPDWSKGEVNGQVGLFPSNYVKLTT [W38S], the abundance fitness is -0.763 ± 0.12.

For AVCQVIGMYDYTAQNDDELAFNKGQIINVLNKEDPDWPKGEVNGQVGLFPSNYVKLTT [W38P], the abundance fitness was -0.853 ± 0.22.

Regarding AVCQVIGMYDYTAQNDDELAFNKGQIINVLNKEDPDWMKGEVNGQVGLFPSNYVKLTT [W38M], the abundance fitness is -0.733 ± 0.24.

In the case of AVCQVIGMYDYTAQNDDELAFNKGQIINVLNKEDPDWGKGEVNGQVGLFPSNYVKLTT [W38G], the abundance fitness is -0.822 ± 0.11.

Regarding AVCQVIGMYDYTAQNDDELAFNKGQIINVLNKEDPDWFKGEVNGQVGLFPSNYVKLTT [W38F], the abundance fitness was -0.859 ± 0.2.

For the variant AVCQVIGMYDYTAQNDDELAFNKGQIINVLNKEDPDWNKGEVNGQVGLFPSNYVKLTT [W38N], the abundance fitness is -0.644 ± 0.2.

Consider AVCQVIGMYDYTAQNDDELAFNKGQIINVLNKEDPDWCKGEVNGQVGLFPSNYVKLTT [W38C], for which the abundance fitness is -0.793 ± 0.22.

For the variant AVCQVIGMYDYTAQNDDELAFNKGQIINVLNKEDPDWLKGEVNGQVGLFPSNYVKLTT [W38L], the abundance fitness was -0.737 ± 0.12.

Take AVCQVIGMYDYTAQNDDELAFNKGQIINVLNKEDPDWEKGEVNGQVGLFPSNYVKLTT [W38E]: the abundance fitness was -0.779 ± 0.23.

Regarding AVCQVIGMYDYTAQNDDELAFNKGQIINVLNKEDPDWRKGEVNGQVGLFPSNYVKLTT [W38R], the abundance fitness was -1.08 ± 0.19.

On to AVCQVIGMYDYTAQNDDELAFNKGQIINVLNKEDPDWYKGEVNGQVGLFPSNYVKLTT [W38Y], for which the abundance fitness is -0.791 ± 0.2.

For the variant AVCQVIGMYDYTAQNDDELAFNKGQIINVLNKEDPDWVKGEVNGQVGLFPSNYVKLTT [W38V], the abundance fitness was -0.906 ± 0.14.

AVCQVIGMYDYTAQNDDELAFNKGQIINVLNKEDPDWHKGEVNGQVGLFPSNYVKLTT [W38H]: the abundance fitness is -0.793 ± 0.21.

Regarding AVCQVIGMYDYTAQNDDELAFNKGQIINVLNKEDPDWDKGEVNGQVGLFPSNYVKLTT [W38D], the abundance fitness is -0.674 ± 0.2.

In the case of AVCQVIGMYDYTAQNDDELAFNKGQIINVLNKEDPDWKKGEVNGQVGLFPSNYVKLTT [W38K], the abundance fitness was -0.671 ± 0.23.

As to AVCQVIGMYDYTAQNDDELAFNKGQIINVLNKEDPDWIKGEVNGQVGLFPSNYVKLTT [W38I], the abundance fitness was -1.03 ± 0.33.

For the variant AVCQVIGMYDYTAQNDDELAFNKGQIINVLNKEDPDWWVGEVNGQVGLFPSNYVKLTT [K39V], the abundance fitness is -0.448 ± 0.48.

Take AVCQVIGMYDYTAQNDDELAFNKGQIINVLNKEDPDWWKDEVNGQVGLFPSNYVKLTT [G40D]: the abundance fitness was -0.722 ± 0.19.

On to AVCQVIGMYDYTAQNDDELAFNKGQIINVLNKEDPDWWKFEVNGQVGLFPSNYVKLTT [G40F], for which the abundance fitness was -0.953 ± 0.3.

As to AVCQVIGMYDYTAQNDDELAFNKGQIINVLNKEDPDWWKPEVNGQVGLFPSNYVKLTT [G40P], the abundance fitness was -0.591 ± 0.16.

Take AVCQVIGMYDYTAQNDDELAFNKGQIINVLNKEDPDWWKWEVNGQVGLFPSNYVKLTT [G40W]: the abundance fitness is -0.981 ± 0.18.

In the case of AVCQVIGMYDYTAQNDDELAFNKGQIINVLNKEDPDWWKVEVNGQVGLFPSNYVKLTT [G40V], the abundance fitness is -0.891 ± 0.14.

On to AVCQVIGMYDYTAQNDDELAFNKGQIINVLNKEDPDWWKAEVNGQVGLFPSNYVKLTT [G40A], for which the abundance fitness was -0.753 ± 0.12.

Consider AVCQVIGMYDYTAQNDDELAFNKGQIINVLNKEDPDWWKIEVNGQVGLFPSNYVKLTT [G40I], for which the abundance fitness was -0.752 ± 0.26.

Turning to AVCQVIGMYDYTAQNDDELAFNKGQIINVLNKEDPDWWKKEVNGQVGLFPSNYVKLTT [G40K], the abundance fitness was -0.848 ± 0.19.
